Molecular target: NS3 helicase (NS3h) (Hepatitis C virus genotype 1b (Con1), UniProt Q9WMX2 1193-1660)
Test: fluorescence polarization; 5 nM DNA, 15 nM NS3h, 1.25 mM MgCl2; FP: 25 mM MOPS pH 7.5, 1.25 mM MgCl2, 0.0025 mg/mL BSA, 0.005% Tween 20, 0.025 mM DTT, 1% DMSO, temperature not stated; EMSA: 50 mM Tris-Cl pH 7.4, 10% glycerol, 0 C, 20 min
Details: protein: recombinant; tags: His tag (pET21b(+), HisTrap purified); single strand

Sequence of NS3 helicase (NS3h) (Q9WMX2 1193-1660): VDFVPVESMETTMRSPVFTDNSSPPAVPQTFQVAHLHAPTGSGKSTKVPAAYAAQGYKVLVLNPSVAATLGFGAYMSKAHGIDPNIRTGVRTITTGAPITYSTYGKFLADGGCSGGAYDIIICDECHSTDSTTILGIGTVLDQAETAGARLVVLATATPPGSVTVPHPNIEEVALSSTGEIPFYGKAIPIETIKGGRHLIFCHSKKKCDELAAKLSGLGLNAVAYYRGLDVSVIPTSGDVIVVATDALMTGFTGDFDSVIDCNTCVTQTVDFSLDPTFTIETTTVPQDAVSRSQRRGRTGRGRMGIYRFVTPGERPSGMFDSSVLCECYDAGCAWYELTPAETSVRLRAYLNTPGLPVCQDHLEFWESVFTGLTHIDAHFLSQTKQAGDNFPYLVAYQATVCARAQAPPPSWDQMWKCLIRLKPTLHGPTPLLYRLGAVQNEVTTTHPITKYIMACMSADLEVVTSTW

Q: Does TTTTTTTTTTTTTTT (ssDNA) [Cy5-dT15] bind?
A: binds
